To fix the notation:
T1: human 5T4 on the cell surface (human, UniProt Q13641 32-420)
T1 sequence (looked up): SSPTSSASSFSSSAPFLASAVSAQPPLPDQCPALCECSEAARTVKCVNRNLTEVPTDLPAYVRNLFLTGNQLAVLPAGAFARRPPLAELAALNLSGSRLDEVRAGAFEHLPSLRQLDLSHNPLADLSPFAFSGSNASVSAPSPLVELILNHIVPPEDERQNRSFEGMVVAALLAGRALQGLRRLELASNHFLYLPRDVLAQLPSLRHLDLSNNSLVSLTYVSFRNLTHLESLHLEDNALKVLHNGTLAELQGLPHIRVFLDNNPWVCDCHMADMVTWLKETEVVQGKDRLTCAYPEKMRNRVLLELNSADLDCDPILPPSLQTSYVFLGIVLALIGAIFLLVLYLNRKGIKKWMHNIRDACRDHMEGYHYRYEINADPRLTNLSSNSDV

B1: 10F10 multispecific binding protein (F0) (bispecific antibody, V domains shown)
VH: EVQLQESGGGLVKPGGSRRLSCAASRFTFSDFGMHWVRQAPEKGLEWIAYISSGSSTIYYADTVKGRFTISRDNAKNTLFLQMTSLRSEDTAMYYCASSQSYYRGTLDYWGQGTSVTVSS
VL: DIVLTQSPASLAVTLGQRATISCRASQSVTTSNYNYMHWFHQKPGQPPKLLIKFASNLESGVPARFSGSGSGTDFTLNIHPVEEEDIATYYCQHSWEIPWTFGGGTKLEIK
B2: 8E06 multispecific binding protein (F0) (bispecific antibody, V domains shown)
VH: EVQLQESGAEMVRPGASVKLSCKASGYTFTSYWMHWVKQRPGQGLEWIGKIDSSDSKTQYNQKFKDKATLTVDKSSITVYMELNSLTSEDSAVYYCARGGYLWFAYWGQGTLVTVSA
VL: B1 VL with L4M, T14S, T30S, N33T, N35S, F40Y, H41Q, P47S, K53T, F54Y
notes: also called 08E06
B3: AB1011 (antibody, V domains shown)
VH: EVQLVESGGGLVKPGGSLRLSCAASGFTFSDYGMHWVRQAPGKGLEWVSYISSGSSTFYYADTVKGRFTISRDNAKNSLYLQMNSLRAEDTAVYYCGSSQSYYRGTMDYWGQGTTVTVSS
VL: DIQLTQSPSSLSASVGDRVTITCRASQGVSTSTYTYMHWFQQKPGKAPKLLIKFASNLESGVPSRFSGSGSGTDFTLTISSLQPEDFATYYCQHSWEIPWTFGGGTKVEIK
notes: member of the group m33
B4: AB1013 (antibody, V domains shown)
VH: B3 VH
VL: B3 VL with M37V
notes: member of the group m33
B5: AB1015 (antibody, V domains shown)
VH: B3 VH with M107I
VL: B3 VL with M37L
notes: member of the group m33
B6: AB1012 (antibody, V domains shown)
VH: B3 VH
VL: B3 VL with M37L
notes: member of the group m33
B7: AB1014 (antibody, V domains shown)
VH: B3 VH with M107I
VL: B3 VL
notes: member of the group m33
B8: AB1016 (antibody, V domains shown)
VH: B3 VH with M107I
VL: B3 VL with M37V
notes: member of the group m33
B9: AB1017 (antibody, V domains shown)
VH: B3 VH with A23E, V48L, S49A
VL: B3 VL
notes: member of the group m33
B10: AB1019 (antibody, V domains shown)
VH: B3 VH with A23E, V48L, S49A
VL: B3 VL with M37V
notes: member of the group m33
B11: AB1018 (antibody, V domains shown)
VH: B3 VH with A23E, V48L, S49A
VL: B3 VL with M37L
notes: member of the group m33
B12: AB1893-TriNKET® (bispecific antibody, human IgG1, kappa)
chain: DIQLTQSPSSLSASVGDRVTITCRASQGVSTSTYTYMHWFQQKPGKAPKLLIKFASNLESGVPSRFSGSGSGTDFTLTISSLQPEDFATYYCQHSWEIPWTFGCGTKVEIKGGGGSGGGGSGGGGSGGGGSEVQLLESGGGLVQPGGSLRLSCAASGFTFSDYGMHWVRQAPGKCLEWLAYISSGSSTFYYADTVKGRFTISRDNAKNTLYLQMNSLRAEDTAVYYCGSSQSYYRGTMDYWGQGTTVTVSSGSDKTHTCPPCPAPELLGGPSVFLFPPKPKDTLMISRTPEVTCVVVDVSHEDPEVKFNWYVDGVEVHNAKTKPREEQYNSTYRVVSVLTVLHQDWLNGKEYKCKVSNKALPAPIEKTISKAKGQPREPRVYTLPPCRDELTKNQVSLTCLVKGFYPSDIAVEWESNGQPENNYKTTPPVLVSDGSFTLYSKLTVDKSRWQQGNVFSCSVMHEALHNHYTQKSLSLSPG
heavy: EVQLVESGGGLVKPGGSLRLSCAASGFTFSSYSMNWVRQAPGKGLEWVSSISSSSSYIYYADSVKGRFTISRDNAKNSLYLQMNSLRAEDTAVYYCARGAPIGAAAGWFDPWGQGTLVTVSSASTKGPSVFPLAPSSKSTSGGTAALGCLVKDYFPEPVTVSWNSGALTSGVHTFPAVLQSSGLYSLSSVVTVPSSSLGTQTYICNVNHKPSNTKVDKKVEPKSCDKTHTCPPCPAPELLGGPSVFLFPPKPKDTLMISRTPEVTCVVVDVSHEDPEVKFNWYVDGVEVHNAKTKPREEQYNSTYRVVSVLTVLHQDWLNGKEYKCKVSNKALPAPIEKTISKAKGQPREPQVCTLPPSRDELTENQVSLTCLVKGFYPSDIAVEWESNGQPENNYKTTPPVLDSDGSFFLYSWLTVDKSRWQQGNVFSCSVMHEALHNHYTQKSLSLSPG
light: DIQMTQSPSSVSASVGDRVTITCRASQGISSWLAWYQQKPGKAPKLLIYAASSLQSGVPSRFSGSGSGTDFTLTISSLQPEDFATYYCQQGVSFPRTFGGGTKVEIKRTVAAPSVFIFPPSDEQLKSGTASVVCLLNNFYPREAKVQWKVDNALQSGNSQESVTEQDSKDSTYSLSSTLTLSKADYEKHKVYACEVTHQGLSSPVTKSFNRGEC
notes: F3′ format; also called AB1893-VL-VH TriNKET®; 11F09-IGHV3-23*03 BM2-YB
B13: AB1890-TriNKET® (bispecific antibody, human IgG1, kappa)
chain: B12 chain with L179V, A180S, A206S
heavy: B12 heavy
light: B12 light
notes: F3′ format; also called AB1890-VL-VH TriNKET®; 11F09-IGHV3-23*03 BM1-YB
B14: AB1891-TriNKET® (bispecific antibody, human IgG1, kappa)
chain: B12 chain with L136V, Q144K, V168I, L179V, A180S, T209S
heavy: B12 heavy
light: B12 light
notes: F3′ format; also called AB1891-VL-VH TriNKET®; 11F09-IGHV3-11*01 BM1-YB
B15: AB1878-TriNKET® (bispecific antibody, human IgG1, kappa)
chain: DIQLTQSPSSLSASVGDRVTITCRASQSVTTSNYNYMHWFQQKPGKAPKLLIKFASNLESGVPSRFSGSGSGTDFTLTISSLQPEDFATYYCQHSWEIPWTFGCGTKVEIKGGGGSGGGGSGGGGSGGGGSEVQLVESGGGLVKPGGSLRLSCAASRFTFSDFGMHWVRQAPGKCLEWVSYISSGSSTIYYADTVKGRFTISRDNAKNSLYLQMNSLRAEDTAVYYCASSQSYYRGTLDYWGQGTTVTVSSGSDKTHTCPPCPAPELLGGPSVFLFPPKPKDTLMISRTPEVTCVVVDVSHEDPEVKFNWYVDGVEVHNAKTKPREEQYNSTYRVVSVLTVLHQDWLNGKEYKCKVSNKALPAPIEKTISKAKGQPREPRVYTLPPCRDELTKNQVSLTCLVKGFYPSDIAVEWESNGQPENNYKTTPPVLVSDGSFTLYSKLTVDKSRWQQGNVFSCSVMHEALHNHYTQKSLSLSPG
heavy: B12 heavy
light: B12 light
notes: F3′ format; also called AB1878-VL-VH TriNKET®; 10F10-IGHV3-21*05 BM1
B16: AB1887-TriNKET® (bispecific antibody, human IgG1, kappa)
chain: B15 chain with V179I, S180A
heavy: B12 heavy
light: B12 light
notes: F3′ format; also called AB1887-VL-VH TriNKET®; 10F10-IGHV3-21*05 BM2
B17: AB1881-TriNKET® (bispecific antibody, human IgG1, kappa)
chain: B15 chain with V136L, K144Q, V179I, S180A, S209T
heavy: B12 heavy
light: B12 light
notes: F3′ format; also called AB1881-VL-VH TriNKET®; 10F10-IGHV3-23*03 BM2
B18: AB1885-TriNKET® (bispecific antibody, human IgG1, kappa)
chain: B15 chain with E132Q, V179I, S180A
heavy: B12 heavy
light: B12 light
notes: F3′ format; also called AB1885-VL-VH TriNKET®; 10F10-IGHV3-11*01 BM2
B19: AB1892-TriNKET® (bispecific antibody, human IgG1, kappa)
chain: B15 chain with V136L, K144Q, A206S, S209T
heavy: B12 heavy
light: B12 light
notes: F3′ format; also called AB1892-VL-VH TriNKET®; 10F10-IGHV3-23*03 BM1
B20: AB1886-TriNKET® (bispecific antibody, human IgG1, kappa)
chain: B15 chain with V168I
heavy: B12 heavy
light: B12 light
notes: F3′ format; also called AB1886-VL-VH TriNKET®; 10F10-IGHV3-11*01 BM1
B21: AB1884-TriNKET® (bispecific antibody, human IgG1, kappa)
chain: B15 chain with K144Q, V179I, S180A
heavy: B12 heavy
light: B12 light
notes: F3′ format; also called AB1884-VL-VH TriNKET®; 10F10-IGHV3-48*01 BM2
B22: AB1882-TriNKET® (bispecific antibody, human IgG1, kappa)
chain: B15 chain with K144Q
heavy: B12 heavy
light: B12 light
notes: F3′ format; also called AB1882-VL-VH TriNKET®; 10F10-IGHV3-48*01 BM1

Positions count from the first letter of the chain named.

The target in one test is T1, human 5T4 on the cell surface. Description: cell-based or functional assay.
Consider B1, for which the “lysis of H1975 cells by KHYG-CD16V cells, EC50” value was 0.059 nM. On to B2, for which the “lysis of H1975 cells by KHYG-CD16V cells, EC50” value was 0.51 nM.

The next test shares this target. Description: flow cytometry on 5T4+ H1975 cells. In general terms: In flow cytometry, cells or beads pass a laser one at a time.
For the molecule B1, a half-maximal response (EC50) required 3.4 nM and the “Max (FOB)” value was 17.9 fold over background. Turning to B2, the EC50 (as a rule, the concentration at which the effect is half-maximal) was above 12 nM.

The next test shares this target. The test is described as follows: flow cytometry on H1975 cells, FOB.
Take B3: the binding result is “binds”.

Regarding B4, the binding result is listed as “binds”. Same read-out and setting: with B5 the entry was “binds”; with B6, “binds”; with B7, “binds”. Consider B8, for which the binding result is on record as “binds”.

The target is the same in the next test. The test is described as follows: flow cytometry on H1975 cells, FOB. This is another data set of the same source.
On to B9, for which the binding result is “binds”.

On to B10, for which the binding result is given as “binds”. Same read-out and setting: then B11, with “binds”.

The target is the same in the next test. The test is described as follows: cell binding assay on 5T4-expressing tumor cells (cell line not given).
In the case of B12, the EC50 turned out to be 15.9 nM and the “Max Fold Over Background (FOB)” value worked out at 70.8 fold over background.

On to B13, for which the midpoint of the response, the EC50, lay at 5.62 nM and the “Max Fold Over Background (FOB)” value was 65.9 fold over background. Consider B14, for which the half-maximal effective concentration (EC50) turned out to be 50.5 nM and the “Max Fold Over Background (FOB)” value was determined as 40.1 fold over background.

The next test shares this target. The test is described as above. The source holds these as a separate data set.
With B15, the EC50 was found to be 10.1 nM and the “Max Fold Over Background (FOB)” value came out at 71.6 fold over background.

As for B16, the response was half-maximal at 10.2 nM (EC50) and the “Max Fold Over Background (FOB)” value amounted to 75 fold over background. On to B17, for which a half-maximal response (EC50) required 7.28 nM and the “Max Fold Over Background (FOB)” value came out at 72.5 fold over background. Consider B18, for which the EC50 was determined as 5.37 nM and the “Max Fold Over Background (FOB)” value was 68 fold over background.

B19: a half-maximal response (EC50) required 4.21 nM and the “Max Fold Over Background (FOB)” value stood at 60 fold over background. For B20, the response was half-maximal at 5.65 nM (EC50) and the “Max Fold Over Background (FOB)” value was determined as 73.5 fold over background. Regarding B21, it took 6.08 nM to reach a half-maximal effect (EC50) and the “Max Fold Over Background (FOB)” value was found to be 70.5 fold over background. Take B22: the EC50 was 8.55 nM and the “Max Fold Over Background (FOB)” value was 71.8 fold over background.

(Values after patent publication US20230203202A1 (DRAGONFLY THERAPEUTICS, published 2023).)
